This note sets out measurements from the supplement of paper PMC11246515.

The series can be described thus: total protein half-life in vivo (active degradation + dilution); higher = more stable protein.
Setting [1] is: E. coli NCM3722 delta-clpP delta-lon delta-hslV, growth: N-lim chemostat, doubling time 6 h.
[2] abbreviates: E. coli NCM3722 delta-clpP, growth: N-lim chemostat, doubling time 6 h.
[3] abbreviates: E. coli NCM3722 delta-hslV, growth: N-lim chemostat, doubling time 6 h.
Where [4] appears, read: E. coli NCM3722 delta-lon, growth: N-lim chemostat, doubling time 6 h.
The mark [5] stands for this setting: E. coli NCM3722 delta-smpB, growth: N-lim chemostat, doubling time 6 h.
[6] abbreviates: wild type E. coli NCM3722, growth: C-lim chemostat, doubling time 3 h.
[7] abbreviates: wild type E. coli NCM3722, growth: C-lim chemostat, doubling time 6 h.
Where [8] appears, read: wild type E. coli NCM3722, growth: C-lim chemostat, doubling time 12 h.
[9] abbreviates: wild type E. coli NCM3722, growth: N-lim chemostat, doubling time 6 h.
Where [10] appears, read: wild type E. coli NCM3722, growth: N-lim chemostat, doubling time 12 h.
Setting [11] is: wild type E. coli NCM3722, growth: P-lim chemostat, doubling time 6 h.
Where [12] appears, read: wild type E. coli NCM3722, growth: P-lim chemostat, doubling time 12 h.

± gives the standard deviation of the averaged measurements.

With “MIYPDEAMLYAPVEWHDCSEGFEDIRYEKSTDGIAKITINRPQVRNAFRPLTVKEMIQALADARYDDNIGVIILTGAGDKAFCSGGDQKVRGDYGGYKDDSGVHHLNVLDFQRQIRTCPKPVVAMVAGYSIGGGHVLHMMCDLTIAADNAIFGQTGPKVGSFDGGWGASYMARIVGQKKAREIWFLCRQYDAKQALDMGLVNTVVPLADLEKETVRWCREMLQNSPMALRCLKAALNADCDGQAGLQELAGNATMLFYMTEEGQEGRNAFNQKRQPDFSKFKRNP [P0ABU0]”, the “total protein half-life in vivo” value reads like this: under setting [1], 4.73 ± 0.74 h; under setting [2], 4.048 ± 0.036 h; under setting [3], 4.15 ± 0.17 h; under setting [4], 4.48 ± 0.44 h; under setting [5], 3.8 ± 0.061 h; under setting [6], 2.9 ± 0.51 h. The “total protein half-life in vivo” value under setting [7] came to 5.55 ± 0.53 h; the “total protein half-life in vivo” value under setting [8] turned out to be 9.64 ± 0.8 h; the “total protein half-life in vivo” value under setting [9] was 3.88 ± 0.12 h; the “total protein half-life in vivo” value under setting [10] was 6.07 ± 0.33 h; the “total protein half-life in vivo” value under setting [11] came out at 5.58 ± 0.069 h; the “total protein half-life in vivo” value under setting [12] stood at 10.85 ± 0.06 h.

For “MIRSMTAYARREIKGEWGSATWEMRSVNQRYLETYFRLPEQFRSLEPVVRERIRSRLTRGKVECTLRYEPDVSAQGELILNEKLAKQLVTAANWVKMQSDEGEINPVDILRWPGVMAAQEQDLDAIAAEILAALDGTLDDFIVARETEGQALKALIEQRLEGVTAEVVKVRSHMPEILQWQRERLVAKLEDAQVQLENNRLEQELVLLAQRIDVAEELDRLEAHVKETYNILKKKEAVGRRLDFMMQEFNRESNTLASKSINAEVTNSAIELKVLIEQMREQIQNIE”, the “total protein half-life in vivo” value stood at 4.67 ± 0.13 h under setting [1]; 4.26 ± 0.17 h under setting [2]; 4.15 ± 0.007 h under setting [3]; 4.46 ± 0.36 h under setting [4]; 4.24 ± 0.048 h under setting [5]; 3.203 ± 0.032 h under setting [6]. In addition, the “total protein half-life in vivo” value was 5.69 ± 0.37 h under setting [7]; 9.42 ± 0.49 h under setting [8]; 4.21 ± 0.05 h under setting [9]; 6.64 ± 0.2 h under setting [10]; 5.83 ± 0.37 h under setting [11]; 12.9 ± 1.8 h under setting [12].

Regarding “MSASALVCLAPGSEETEAVTTIDLLVRGGIKVTTASVASDGNLAITCSRGVKLLADAPLVEVADGEYDVIVLPGGIKGAECFRDSTLLVETVKQFHRSGRIVAAICAAPATVLVPHDIFPIGNMTGFPTLKDKIPAEQWLDKRVVWDARVKLLTSQGPGTAIDFGLKIIDLLVGREKAHEVASQLVMAAGIYNYYE”, the “total protein half-life in vivo” value under setting [1] amounted to 5.064 ± 0.047 h; the “total protein half-life in vivo” value under setting [3] was 5.39 ± 1.1 h; the “total protein half-life in vivo” value under setting [4] worked out at 4.534 ± 0.022 h; the “total protein half-life in vivo” value under setting [5] is 4.23 ± 0.24 h; the “total protein half-life in vivo” value under setting [6] is 2.69 ± 0.31 h; the “total protein half-life in vivo” value under setting [7] came to 5.15 ± 0.32 h. The “total protein half-life in vivo” value is, setting by setting: under setting [8], 9.53 ± 0.47 h; under setting [9], 4.21 ± 0.22 h; under setting [10], 7.09 ± 0.18 h; under setting [11], 5.81 ± 0.065 h.

On to “MDLASLRAQQIELASSVIREDRLDKDPPDLIAGADVGFEQGGEVTRAAMVLLKYPSLELVEYKVARIATTMPYIPGFLSFREYPALLAAWEMLSQKPDLVFVDGHGISHPRRLGVASHFGLLVDVPTIGVAKKRLCGKFEPLSSEPGALAPLMDKGEQLAWVWRSKARCNPLFIATGHRVSVDSALAWVQRCMKGYRLPEPTRWADAVASERPAFVRYTANQP”, for which the “total protein half-life in vivo” value was 5.52 ± 0.25 h under setting [2]; 4.58 ± 0.4 h under setting [3]; 4.952 ± 0.015 h under setting [4]; 4.62 ± 0.2 h under setting [5]; 3.05 ± 0.12 h under setting [6]; 6.09 ± 0.24 h under setting [7]. For the same sequence, the “total protein half-life in vivo” value worked out at 11.3 ± 0.85 h under setting [8]; 5.08 ± 0.14 h under setting [9]; 8.84 ± 0.67 h under setting [10]; 5.3 ± 0.39 h under setting [11]; 9.801 ± 0.042 h under setting [12].

In the case of “MTQFASPVLHSLLDTDAYKLHMQQAVFHHYYDVHVAAEFRCRGDDLLGIYADAIREQVQAMQHLRLQDDEYQWLSALPFFKADYLNWLREFRFNPEQVTVSNDNGKLDIRLSGPWREVILWEVPLLAVISEMVHRYRSPQADVAQALDTLESKLVDFSALTAGLDMSRFHLMDFGTRRRFSREVQETIVKRLQQESWFVGTSNYDLARRLSLTPMGTQAHEWFQAHQQISPDLANSQRAALAAWLEEYPDQLGIALTDCITMDAFLRDFGVEFASRYQGLRHDSGDPVEWGEKAIAHYEKLGIDPQSKTLVFSDNLDLRKAVELYRHFSSRVQLSFGIGTRLTCDIPQVKPLNIVIKLVECNGKPVAKLSDSPGKTICHDKAFVRALRKAFDLPHIKKAS”, the “total protein half-life in vivo” value under setting [1] amounted to 4.31 ± 1.6 h; the “total protein half-life in vivo” value under setting [2] came out at 3.07 ± 0.44 h; the “total protein half-life in vivo” value under setting [3] was determined as 2.98 ± 0.068 h; the “total protein half-life in vivo” value under setting [4] came to 4.11 ± 0.88 h; the “total protein half-life in vivo” value under setting [5] is 2.95 ± 0.13 h; the “total protein half-life in vivo” value under setting [6] was 2.28 ± 0.31 h. The “total protein half-life in vivo” value by setting is: under setting [7], 4.04 ± 0.27 h; under setting [8], 5.56 ± 0.35 h; under setting [9], 2.92 ± 0.065 h; under setting [10], 4.49 ± 0.41 h; under setting [11], 3.57 ± 0.071 h; under setting [12], 5.37 ± 1 h.
